# From patent publication US20110020218A1 (PIERRE FABRE MEDICAMENT, published 2011)
# T1: CXCR2:YFP fusion protein (UniProt P25025 1-360)
# T1 construct: whole, on cells; Transiently expressed in HEK293 cells for BRET; not shown: Yellow fluorescent protein (EYFP)
# T1 sequence (looked up): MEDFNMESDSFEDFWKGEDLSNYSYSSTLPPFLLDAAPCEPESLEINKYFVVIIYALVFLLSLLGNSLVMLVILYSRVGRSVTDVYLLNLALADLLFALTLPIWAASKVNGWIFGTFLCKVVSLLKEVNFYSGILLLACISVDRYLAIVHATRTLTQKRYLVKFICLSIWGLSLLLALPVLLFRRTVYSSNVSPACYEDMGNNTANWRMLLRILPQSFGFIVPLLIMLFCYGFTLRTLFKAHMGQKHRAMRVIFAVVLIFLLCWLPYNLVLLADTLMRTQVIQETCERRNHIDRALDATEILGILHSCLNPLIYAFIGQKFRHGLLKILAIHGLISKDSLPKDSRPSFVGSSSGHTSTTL
# B1: anti-CXCR4 Mab 414H5 (antibody, V domains shown)
# VH: EVKLVESGGGLVQPGGSLRLSCTTSGFTFTDYYMSWVRQSPGKALEWLTFIRNKANGYTTEYSASVKGRFTISRDNSQSILYLQMNTLRAEDSATYYCARDIPGFAYWGQGTLVTVSA
# VL: DIVMSQSPSSLAVSAGEKVTMSCKSSQSLYNSRTRKNYLAWYQQKPGQSPKLLIYWASTRESGVPDRFTGSGSGTDFTLTITSVQAEDLAVFYCKQSYNLRTFGGGTKLEIK
# B2: anti-CXCR4 chimeric Mab c414H5 (antibody, human IgG1, kappa, V domains shown)
# VH: EVKLVESGGGLVQPGGSLRLSCTTSGFTFTDYYMSWVRQSPGKALEWLTFIRNKANGYTTEYSASVKGRFTISRDNSQSILYLQMNTLRAEDSATYYCARDIPGFAYWGQGTLVTVSA
# VL: DIVMSQSPSSLAVSAGEKVTMSCKSSQSLYNSRTRKNYLAWYQQKPGQSPKLLIYWASTRESGVPDRFTGSGSGTDFTLTITSVQAEDLAVFYCKQSYNLRTFGGGTKLEIKR
# notes: they may be whole chains; also called chimeric 414H5
# B3: anti-CXCR4 Mab 515H7 (antibody, V domains shown)
# VH: EVNLVESGGGLVQPGGSLRLSCATSGFTFTDNYMSWVRQPPGKALEWLGFIRNKANGYTTDYSASVRGRFTISRDNSQSILYLQMNALRAEDSATYYCARDVGSNYFDYWGQGTTLTVSS
# VL: DIVMSQSPSSLAVSAGEKVTMSCKSSQSLFNSRTRKNYLAWYQQKPGQSPKLLIYWASARDSGVPARFTGSGSETYFTLTISRVQAEDLAVYYCMQSFNLRTFGGGTKLEIK
# B4: CXCR4/Rluc fusion protein (receptor, UniProt P61073 1-352, looked up)
# chain: MEGISIYTSDNYTEEMGSGDYDSMKEPCFREENANFNKIFLPTIYSIIFLTGIVGNGLVILVMGYQKKLRSMTDKYRLHLSVADLLFVITLPFWAVDAVANWYFGNFLCKAVHVIYTVNLYSSVLILAFISLDRYLAIVHATNSQRPRKLLAEKVVYVGVWIPALLLTIPDFIFANVSEADDRYICDRFYPNDLWVVVFQFQHIMVGLILPGIVILSCYCIIISKLSHSKGHQKRKALKTTVILILAFFACWLPYYIGISIDSFILLEIIKQGCEFENTVHKWISITEALAFFHCCLNPILYAFLGAKFKTSAQHALTSVSRGSSLKILSKGKRGGHSSVSTESESSSFHSS
# notes: whole, on cells; Transiently expressed in HEK293 cells for BRET; also called CXCR4 tagged with luciferase; not shown: Renilla reniformis luciferase (Rluc)
# B5: humanized antibody Hz515H7 VH1 D76N VL2 (antibody, human IgG1, kappa, V domains shown)
# VH: EVQLVESGGGLVQPGRSLRLSCTASGFTFTDNYMSWVRQAPGKGLEWVGFIRNKANGYTTEYAASVKGRFTISRDNSKSIAYLQMNSLKTEDTAVYYCARDVGSNYFDYWGQGTLVTVSS
# VL: DIVMTQSPSSLAVSLGERATMSCKSSQSLFNSRTRKNYLAWYQQKPGQSPKLLIYWASARDSGVPARFTGSGSETYFTLTISRVQAEDLAVYYCMQSFNLRTFGQGTKVEIKR
# B6: humanized antibody Hz515H7 VH1 VL1 (antibody, human IgG1, kappa, V domains shown)
# VH: EVQLVESGGGLVQPGRSLRLSCTASGFTFTDNYMSWVRQAPGKGLEWVGFIRNKANGYTTEYAASVKGRFTISRDDSKSIAYLQMNSLKTEDTAVYYCARDVGSNYFDYWGQGTLVTVSS
# VL: DIVMTQSPDSLAVSLGERATINCKSSQSLFNSRTRKNYLAWYQQKPGQPPKLLIYWASTRESGVPDRFSGSGSGTDFTLTISSLQAEDVAVYYCMQSFNLRTFGQGTKVEIKR
# notes: Human IgG1/kappa format; no back mutations; also called 515H7 VH variant 1 VL variant 1
# B7: anti-CXCR4 chimeric Mab c515H7 (antibody, human IgG1, kappa, V domains shown)
# VH: EVNLVESGGGLVQPGGSLRLSCATSGFTFTDNYMSWVRQPPGKALEWLGFIRNKANGYTTDYSASVRGRFTISRDNSQSILYLQMNALRAEDSATYYCARDVGSNYFDYWGQGTTLTVSS
# VL: DIVMSQSPSSLAVSAGEKVTMSCKSSQSLFNSRTRKNYLAWYQQKPGQSPKLLIYWASARDSGVPARFTGSGSETYFTLTISRVQAEDLAVYYCMQSFNLRTFGGGTKLEIKR
# notes: they may be whole chains; also called chimeric 515H7
# B8: hz515H7 VH1 combined with the chimeric VL (cVL) (antibody, human IgG1, kappa)
# heavy: not shown
# VL: DIVMSQSPSSLAVSAGEKVTMSCKSSQSLFNSRTRKNYLAWYQQKPGQSPKLLIYWASARDSGVPARFTGSGSETYFTLTISRVQAEDLAVYYCMQSFNLRTFGGGTKLEIKRTVAAPSVFIFPPSDEQLKSGTASVVCLLNNFYPREAKVQWKVDNALQSGNSQESVTEQDSKDSTYSLSSTLTLSKADYEKHKVYACEVTHQGLSSPVTKSFNRGEC
# notes: Humanized VH variant with the chimeric (murine VL, human Ckappa) light chain of c515H7; IgG1/kappa; also called VH1 cVL
# B9: humanized antibody Hz515H7 VH1 D76N VL2.3 (antibody, human IgG1, kappa, V domains shown)
# VH: EVQLVESGGGLVQPGRSLRLSCTASGFTFTDNYMSWVRQAPGKGLEWVGFIRNKANGYTTEYAASVKGRFTISRDNSKSIAYLQMNSLKTEDTAVYYCARDVGSNYFDYWGQGTLVTVSS
# VL: DIVMTQSPDSLAVSLGERATMSCKSSQSLFNSRTRKNYLAWYQQKPGQPPKLLIYWASARDSGVPDRFTGSGSETYFTLTISSLQAEDLAVYYCMQSFNLRTFGQGTKVEIKR
# B10: humanized antibody Hz515H7 VH1 D76N VL2.1 (antibody, human IgG1, kappa, V domains shown)
# VH: EVQLVESGGGLVQPGRSLRLSCTASGFTFTDNYMSWVRQAPGKGLEWVGFIRNKANGYTTEYAASVKGRFTISRDNSKSIAYLQMNSLKTEDTAVYYCARDVGSNYFDYWGQGTLVTVSS
# VL: DIVMTQSPDSLAVSLGERATMSCKSSQSLFNSRTRKNYLAWYQQKPGQPPKLLIYWASARDSGVPDRFSGSGSETYFTLTISRVQAEDLAVYYCMQSFNLRTFGQGTKVEIKR
# B11: hz515H7 VH1 VL2 (antibody, human IgG1, kappa)
# heavy: not shown
# light: DIVMTQSPSSLAVSLGERATMSCKSSQSLFNSRTRKNYLAWYQQKPGQSPKLLIYWASARDSGVPARFTGSGSETYFTLTISRVQAEDLAVYYCMQSFNLRTFGQGTKVEIKRTVAAPSVFIFPPSDEQLKSGTASVVCLLNNFYPREAKVQWKVDNALQSGNSQESVTEQDSKDSTYSLSSTLTLSKADYEKHKVYACEVTHQGLSSPVTKSFNRGEC
# notes: human IgG1/kappa format; also called VH variant 1 combined with variant 2 of VL
# B12: humanized antibody Hz515H7 VH1 D76N VL2.2 (antibody, human IgG1, kappa, V domains shown)
# VH: EVQLVESGGGLVQPGRSLRLSCTASGFTFTDNYMSWVRQAPGKGLEWVGFIRNKANGYTTEYAASVKGRFTISRDNSKSIAYLQMNSLKTEDTAVYYCARDVGSNYFDYWGQGTLVTVSS
# VL: DIVMTQSPDSLAVSLGERATMSCKSSQSLFNSRTRKNYLAWYQQKPGQPPKLLIYWASARDSGVPDRFTGSGSETYFTLTISRVQAEDVAVYYCMQSFNLRTFGQGTKVEIKR
# Assays:
# [1] = biological target: T2, human CXCR4 receptor (wild type) (human, UniProt P61073 1-352); test: cell-based or functional assay
# [2] = biological target: T2, human CXCR4 receptor (wild type); test: SPA competition, Mab 100 nM, labelled competitor [125I]SDF-1 (1 nM), CHO-K1/human CXCR4 membranes
# Description: CHO-K1 cells, stably and constitutively expressing human CXCR4 receptor were obtained upon transfection of naïve CHO-K¹ cells (ATCC CCL-61) with a mammalian expression vector carrying the whole coding sequence of human CXCR4 receptor (RefSeq NM_{—}003467). Cells were propagated in complete culture medium [DMEM-Ham's F12 supplemented with 5% fetal calf serum (FCS) and 500 μg/ml of geneticin]. Radioligand binding experiments were conducted on cell membranes obtained upon mechanical scrapping of CHO/CXCR4 cells in lysis buffer [Hepes 20 mM, pH 7.4, NaCl 150 mM] followed by centrifugation (10000 g, 15 min). […] Upon centrifugation [1000 g for 10 min.] radioactive counts were measured in a scintillation counter (TopCount, Perkin Elmer).
# CXCR2:YFP fusion protein = biological target: T1, CXCR2:YFP fusion protein; test: BRET in transiently transfected HEK293 cells
# Description: The day after, cells were distributed in poly-lysine pre-coated white 96 MW plates in complete culture medium [DMEM supplemented with 10% FBS]. Cells were first cultivated at 37° C. with CO₂ 5% in order to allow cell attachment to the plate. Cells were then starved with 200 μl DMEM/well overnight. Immediately prior to the BRET experiment, DMEM was removed and cells were quickly washed with PBS. […] After incubation for further 10 minutes at 37° C., light-emission acquisition at 485 nm and 530 nm was initiated using the Mithras LB940 multilabel reader (Berthold) (1 s/wavelength/well repeated 15 times at room temperature).
# Calculation of BRET ratio was performed as previously described (Angers et al., 2000): [(emission_{530 nm})−(emission_{485 nm})×Cf]/(emission_{485 nm}), where Cf=(emission_{530 nm})/(emission_{485 nm}) for cells expressing the Rluc fusion protein alone under the same experimental conditions. […] For sake of readability, results are expressed in milliBRET units (mBU); mBU corresponds to the BRET ratio multiplied by 1000.
# [3] = biological target: T2, human CXCR4 receptor (wild type); test: flow cytometry competition with biotinylated murine 515H7 on CXCR4 transfected NIH3T3 cells
Binder,"IC50, [35S]GTPγS binding, Hela cells, SDF-1 10 nM [1]","IC50, [35S]GTPγS binding, NIH3T3/CXCR4 cells, SDF-1 10 nM [1]",inhibition of SDF-1-induced BRET increase (CXCR4 homo-dimers) [1],inhibition of SDF-1-induced β-arrestin recruitment (BRET) [1],% of inhibition of [35S]GTPγS binding stimulated by SDF-1 (100 nM) [1],"IC50, [35S]GTPγS binding, NIH3T3/CXCR4 cells [1]",percentage of inhibition of SDF-1-induced BRET increase (CXCR4 homo-dimers) [1],other results
B1,0.5 nM,1.6 nM,63%,~20%,,,,
B2,0.3 nM,1.1 nM,75%,~63%,,,,% inhibition of [125I]SDF-1 [2]: 21%; decrease in SDF-1-induced U937 cells migration [1]: ~50%
B3,0.2 nM,1.9 nM,69%,95%,71%,,,decrease in SDF-1-induced U937 cells migration [1]: > 80%
B4,,,,,,,,binding result (CXCR2:YFP fusion protein): binds
B5,,,,~94%,86%,3.86 nM,~88%,
B6,,,,,,,,binding result [3]: binds
B7,0.6 nM,1.5 nM,96%,93%,71%,,,% inhibition of [125I]SDF-1 [2]: 55%; decrease in SDF-1-induced U937 cells migration [1]: > 80%
B8,,,,,,,,binding result [3]: binds
B9,,,,~71%,58%,8.5 nM,~21%,
B10,,,,~81%,69%,4.05 nM,~65%,
B11,,,,,,,,binding result [3]: binds
B12,,,,~82%,66%,5.19 nM,~33%,
